Experimental data as given in the supplement of paper PMC9112550, “Optimization of the antimicrobial peptide Bac7 by deep mutational scanning” (BMC Biology, 2022).

Tested on: Escherichia coli TOP10
Experiment: shrunken log2 fold change of peptide-encoding DNA abundance (4.5 h post-induction vs induction); higher = less antimicrobial activity (less host growth inhibition)
Conditions: time post-induction: 4.5 h; library: site-saturation at positions 5, 18, 19, 20
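Note: peptides expressed intracellularly from a pBAD plasmid library in pooled LB shake-flask culture, induced with 0.3% L-arabinose, DNA abundance read by NGS, three biological replicates, DESeq2 with apeglm shrinkage.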

## RRIRARPPRLPRPRPRPVLTPRP
  shrunken log2 fold change: 0.384

## RRIRRRPPRLPRPRPRPCFHPRP
  shrunken log2 fold change: -0.00606

## RRIRERPPRLPRPRPRPRLRPRP
  shrunken log2 fold change: 0.25

## RRIRLRPPRLPRPRPRPQPSPRP
  shrunken log2 fold change: 0.169

## RRIRSRPPRLPRPRPRPMKWPRP
  shrunken log2 fold change: 0.053

## RRIRNRPPRLPRPRPRPCNKPRP
  shrunken log2 fold change: -0.334

## RRIRLRPPRLPRPRPRPALMPRP
  shrunken log2 fold change: 0.306

## RRIRYRPPRLPRPRPRPWFPPRP
  shrunken log2 fold change: -0.523

## RRIRIRPPRLPRPRPRPHHVPRP
  shrunken log2 fold change: -0.091

## RRIRLRPPRLPRPRPRPQITPRP
  shrunken log2 fold change: -0.294

## RRIRLRPPRLPRPRPRPITDPRP
  shrunken log2 fold change: -0.465

## RRIRHRPPRLPRPRPRPNIAPRP
  shrunken log2 fold change: -0.112

## RRIRRRPPRLPRPRPRPTVWPRP
  shrunken log2 fold change: 0.359

## RRIRCRPPRLPRPRPRPMVVPRP
  shrunken log2 fold change: -0.0292

## RRIRLRPPRLPRPRPRPCQDPRP
  shrunken log2 fold change: 0.0219

## RRIRRRPPRLPRPRPRPGKSPRP
  shrunken log2 fold change: 0.0256

## RRIRSRPPRLPRPRPRPEIRPRP
  shrunken log2 fold change: -0.0706

## RRIRQRPPRLPRPRPRPYPHPRP
  shrunken log2 fold change: -0.0795

## RRIRYRPPRLPRPRPRPPNWPRP
  shrunken log2 fold change: -0.00249

## RRIRYRPPRLPRPRPRPQTQPRP
  shrunken log2 fold change: -0.275

## RRIRPRPPRLPRPRPRPQACPRP
  shrunken log2 fold change: -0.0282

## RRIRIRPPRLPRPRPRPFMGPRP
  shrunken log2 fold change: -0.438

## RRIRQRPPRLPRPRPRPRNTPRP
  shrunken log2 fold change: -0.00635

## RRIRNRPPRLPRPRPRPDEWPRP
  shrunken log2 fold change: 0.0842

## RRIRKRPPRLPRPRPRPPWVPRP
  shrunken log2 fold change: 0.221

## RRIRARPPRLPRPRPRPLQWPRP
  shrunken log2 fold change: 0.539

## RRIRIRPPRLPRPRPRPQYSPRP
  shrunken log2 fold change: -0.581

## RRIRLRPPRLPRPRPRPTSYPRP
  shrunken log2 fold change: -0.395

## RRIRLRPPRLPRPRPRPMNPPRP
  shrunken log2 fold change: -0.0817

## RRIRVRPPRLPRPRPRPEKEPRP
  shrunken log2 fold change: 0.0209

## RRIRVRPPRLPRPRPRPIIWPRP
  shrunken log2 fold change: -0.098

## RRIRARPPRLPRPRPRPYGIPRP
  shrunken log2 fold change: -0.00196

## RRIRTRPPRLPRPRPRPIYFPRP
  shrunken log2 fold change: -0.468

## RRIRIRPPRLPRPRPRPPRSPRP
  shrunken log2 fold change: 0.272

## RRIRQRPPRLPRPRPRPANNPRP
  shrunken log2 fold change: -0.27

## RRIRWRPPRLPRPRPRPENRPRP
  shrunken log2 fold change: -0.0139

## RRIRRRPPRLPRPRPRPPWCPRP
  shrunken log2 fold change: 0.294

## RRIRVRPPRLPRPRPRPYWAPRP
  shrunken log2 fold change: -0.0239

## RRIRYRPPRLPRPRPRPFVGPRP
  shrunken log2 fold change: -0.193

## RRIRNRPPRLPRPRPRPVPSPRP
  shrunken log2 fold change: 0.155

## RRIRPRPPRLPRPRPRPFAMPRP
  shrunken log2 fold change: 0.0938

## RRIRPRPPRLPRPRPRPILFPRP
  shrunken log2 fold change: -0.124

## RRIRCRPPRLPRPRPRPWIEPRP
  shrunken log2 fold change: -0.123

## RRIRHRPPRLPRPRPRPAMTPRP
  shrunken log2 fold change: -0.00367

## RRIRTRPPRLPRPRPRPEFQPRP
  shrunken log2 fold change: -0.161

## RRIRMRPPRLPRPRPRPEILPRP
  shrunken log2 fold change: 0.121

## RRIRLRPPRLPRPRPRPMLQPRP
  shrunken log2 fold change: -0.0201

## RRIRTRPPRLPRPRPRPCINPRP
  shrunken log2 fold change: -0.686

## RRIRTRPPRLPRPRPRPVTYPRP
  shrunken log2 fold change: 0.0141

## RRIRLRPPRLPRPRPRPHDIPRP
  shrunken log2 fold change: -0.618

## RRIRGRPPRLPRPRPRPVYVPRP
  shrunken log2 fold change: 0.0272

## RRIRVRPPRLPRPRPRPSDWPRP
  shrunken log2 fold change: -0.102

## RRIRARPPRLPRPRPRPTAQPRP
  shrunken log2 fold change: 0.936

## RRIRNRPPRLPRPRPRPACQPRP
  shrunken log2 fold change: -0.0318

## RRIRCRPPRLPRPRPRPVPDPRP
  shrunken log2 fold change: -0.0739

## RRIRIRPPRLPRPRPRPDCRPRP
  shrunken log2 fold change: -0.015

## RRIRQRPPRLPRPRPRPNHVPRP
  shrunken log2 fold change: 0.0349

## RRIRYRPPRLPRPRPRPNRAPRP
  shrunken log2 fold change: -0.0548

## RRIRNRPPRLPRPRPRPQGDPRP
  shrunken log2 fold change: 4.25

## RRIRPRPPRLPRPRPRPAEVPRP
  shrunken log2 fold change: -0.0315

## RRIRTRPPRLPRPRPRPESIPRP
  shrunken log2 fold change: -0.114

## RRIRMRPPRLPRPRPRPQAWPRP
  shrunken log2 fold change: -0.0331

## RRIRRRPPRLPRPRPRPISDPRP
  shrunken log2 fold change: 0.136

## RRIRHRPPRLPRPRPRPQHWPRP
  shrunken log2 fold change: -0.00395

## RRIRFRPPRLPRPRPRPARGPRP
  shrunken log2 fold change: 0.624

## RRIRGRPPRLPRPRPRPGDFPRP
  shrunken log2 fold change: 0.00388

## RRIRSRPPRLPRPRPRPDRYPRP
  shrunken log2 fold change: -0.172

## RRIRQRPPRLPRPRPRPHEMPRP
  shrunken log2 fold change: -0.111

## RRIRPRPPRLPRPRPRPLSRPRP
  shrunken log2 fold change: 0.0978

## RRIRQRPPRLPRPRPRPGMTPRP
  shrunken log2 fold change: 0.00903

## RRIRERPPRLPRPRPRPNTRPRP
  shrunken log2 fold change: -0.0785

## RRIRHRPPRLPRPRPRPNRFPRP
  shrunken log2 fold change: -0.00088

## RRIRGRPPRLPRPRPRPYPNPRP
  shrunken log2 fold change: -0.529

## RRIRNRPPRLPRPRPRPQGFPRP
  shrunken log2 fold change: -0.00956

## RRIRPRPPRLPRPRPRPANHPRP
  shrunken log2 fold change: -0.0982

## RRIRKRPPRLPRPRPRPEVWPRP
  shrunken log2 fold change: 0.951

## RRIRYRPPRLPRPRPRPMEAPRP
  shrunken log2 fold change: -0.163

## RRIRCRPPRLPRPRPRPICPPRP
  shrunken log2 fold change: -0.148

## RRIRDRPPRLPRPRPRPHEHPRP
  shrunken log2 fold change: 0.00488

## RRIRNRPPRLPRPRPRPCLEPRP
  shrunken log2 fold change: 0.000258

## RRIRWRPPRLPRPRPRPTAEPRP
  shrunken log2 fold change: 1.76

## RRIRWRPPRLPRPRPRPFPTPRP
  shrunken log2 fold change: -0.12

## RRIRCRPPRLPRPRPRPCMSPRP
  shrunken log2 fold change: -0.185

## RRIRERPPRLPRPRPRPEPTPRP
  shrunken log2 fold change: 0.327

## RRIRWRPPRLPRPRPRPMSYPRP
  shrunken log2 fold change: -0.206

## RRIRERPPRLPRPRPRPVWNPRP
  shrunken log2 fold change: -0.165

## RRIRCRPPRLPRPRPRPYYYPRP
  shrunken log2 fold change: -0.346

## RRIRHRPPRLPRPRPRPLTWPRP
  shrunken log2 fold change: -0.135

## RRIRTRPPRLPRPRPRPDIAPRP
  shrunken log2 fold change: -0.0105

## RRIRLRPPRLPRPRPRPNSKPRP
  shrunken log2 fold change: -0.706

## RRIRHRPPRLPRPRPRPANDPRP
  shrunken log2 fold change: -0.0802

## RRIRGRPPRLPRPRPRPYGGPRP
  shrunken log2 fold change: -0.26

## RRIRVRPPRLPRPRPRPRGRPRP
  shrunken log2 fold change: 0.197

## RRIRPRPPRLPRPRPRPRYGPRP
  shrunken log2 fold change: 0.00536

## RRIRPRPPRLPRPRPRPPTPPRP
  shrunken log2 fold change: 0.417

## RRIRERPPRLPRPRPRPICFPRP
  shrunken log2 fold change: -0.221

## RRIRCRPPRLPRPRPRPEKYPRP
  shrunken log2 fold change: -0.209

## RRIRMRPPRLPRPRPRPYVHPRP
  shrunken log2 fold change: -0.0522

## RRIRMRPPRLPRPRPRPWVDPRP
  shrunken log2 fold change: -0.034

## RRIRIRPPRLPRPRPRPVKDPRP
  shrunken log2 fold change: -0.00153

## RRIRCRPPRLPRPRPRPQGNPRP
  shrunken log2 fold change: -0.695

## RRIRVRPPRLPRPRPRPCMWPRP
  shrunken log2 fold change: 0.0384

## RRIRYRPPRLPRPRPRPFPHPRP
  shrunken log2 fold change: -0.137

## RRIRNRPPRLPRPRPRPTLPPRP
  shrunken log2 fold change: 0.149

## RRIRCRPPRLPRPRPRPWSDPRP
  shrunken log2 fold change: -0.324

## RRIRCRPPRLPRPRPRPEAGPRP
  shrunken log2 fold change: 0.4

## RRIRHRPPRLPRPRPRPRPIPRP
  shrunken log2 fold change: 0.117

## RRIRKRPPRLPRPRPRPCSHPRP
  shrunken log2 fold change: 0.0663

## RRIRRRPPRLPRPRPRPVTSPRP
  shrunken log2 fold change: 0.0312

## RRIRSRPPRLPRPRPRPVSAPRP
  shrunken log2 fold change: 2.53

## RRIRCRPPRLPRPRPRPYMRPRP
  shrunken log2 fold change: -0.142

## RRIRQRPPRLPRPRPRPCCVPRP
  shrunken log2 fold change: 0.115

## RRIRMRPPRLPRPRPRPSTVPRP
  shrunken log2 fold change: -0.0552

## RRIRIRPPRLPRPRPRPFEAPRP
  shrunken log2 fold change: -0.151

## RRIRFRPPRLPRPRPRPTIMPRP
  shrunken log2 fold change: -0.375

## RRIRDRPPRLPRPRPRPYVIPRP
  shrunken log2 fold change: -0.116

## RRIRARPPRLPRPRPRPLVAPRP
  shrunken log2 fold change: 0.58

## RRIRARPPRLPRPRPRPGENPRP
  shrunken log2 fold change: 0.687

## RRIRNRPPRLPRPRPRPHQTPRP
  shrunken log2 fold change: -0.0525

## RRIRMRPPRLPRPRPRPAADPRP
  shrunken log2 fold change: 2.81

## RRIRARPPRLPRPRPRPKAPPRP
  shrunken log2 fold change: 0.56

## RRIRDRPPRLPRPRPRPFKIPRP
  shrunken log2 fold change: -0.249

## RRIRMRPPRLPRPRPRPYSLPRP
  shrunken log2 fold change: -0.129

## RRIRDRPPRLPRPRPRPQYGPRP
  shrunken log2 fold change: -0.414

## RRIRYRPPRLPRPRPRPIAHPRP
  shrunken log2 fold change: -0.901
